The record followed here is publication PMC3298758.

By Kd is commonly meant the equilibrium constant for the complex coming apart. A lower Kd goes with higher affinity. Broadly, the stoichiometry N is a count of units in the complex or per binding partner. The term Ki denotes the equilibrium dissociation constant of an inhibitor or competing ligand from its target. Low values mean higher affinity, high ones lower affinity.

The target in assay [1] is Factor X. In words: SPR.
The target in assay [2] is Factor X. Kind of assay: cross-linking.
The target of assay [3] is Factor X. In words: ELISA. Background: An ELISA detects its analyte on a solid surface through an enzyme-linked reagent.
The target of assay [4] is Factor VIII light chain (A3C1C2 domains). Kind of assay: ELISA.
Assay [5] has as its target Factor X. In words: cross-linking. This is another data set of the same source.
Assay [6] addresses Factor X. Kind of assay: ELISA. This is another data set of the same source.
Assay [7] deals with Factor X. In words: SPR. The source holds these as a separate data set. Background: Surface plasmon resonance follows binding to a sensor surface in real time, without labels.

Read-outs that look alike come from different tables or passages of the source. Ends that are not written are not given here.

On to “Factor VIII light chain (A3C1C2 domains) (domain or fragment)”, for which the Kd was found to be 165 nM with Factor X [1] and 370 nM with Factor X [3]. The stoichiometry N with Factor X [2] worked out at 1.
The molecule “A3C1C2 subunit from FVIII variant Val2016Ala (from UniProt P00451 1709-2351) (domain or fragment)” yielded a Kd in the assay with Factor X [1] of 55.7 nM.
In assay [4], Factor X (natural protein) gave a Kd of 89.9 nM and a Ki of 154 nM.
Regarding “active site-modified activated protein C (DEGR-APC) (enzyme)”, the Ki in assay [4] was found to be 82.7 nM.
Turning to “A3C1C2 subunit from FVIII variant Phe2014Ala (from UniProt P00451 1709-2351) (domain or fragment)”, in the assay with Factor X [1], the Kd amounted to 104 nM.
Consider “A3C1C2 subunit from FVIII variant Ser2011Ala (from UniProt P00451 1709-2351) (domain or fragment)”, for which, in the assay with Factor X [1], the Kd was determined as 59.4 nM.
The molecule “A3C1C2 subunit from recombinant wild type FVIII (from UniProt P00451 1709-2351) (domain or fragment)” registered a Kd in the assay with Factor X [1] of 57 nM.
As to “A3C1C2 subunit from FVIII variant Thr2012Ala (from UniProt P00451 1709-2351) (domain or fragment)”, in the assay with Factor X [1], the Kd is 85.8 nM.
In the assay with Factor X [1], “A3C1C2 subunit from FVIII variant Leu2015Ala (from UniProt P00451 1709-2351) (domain or fragment)” registered a Kd of 45.1 nM.
Same read-out and setting: in the case of “A3C1C2 subunit from FVIII variant Leu2013Ala (from UniProt P00451 1709-2351) (domain or fragment)” it was 63.9 nM; in that of “A3C1C2 subunit from FVIII variant Thr2012Ala/Phe2014Ala (from UniProt P00451 1709-2351) (domain or fragment)”, 193 nM; in that of “A3C1C2 subunit from FVIII variant Met2010Ala (from UniProt P00451 1709-2351) (domain or fragment)”, 59.5 nM.
The molecule “A3C1C2 subunit from FVIII variant Thr2012Ala/Leu2013Ala/Phe2014Ala (from UniProt P00451 1709-2351) (domain or fragment)” gave a Kd in the assay with Factor X [1] of 239 nM.
In the case of HAGMSTLFLV (also: biotinylated, position not given here) [biotinylated 2007-2016 peptide], in the assay with Factor X [5], the stoichiometry N was 1.
Regarding HAGMSTLFLV [synthetic peptide corresponding to FVIII A3 residues 2007-2016], in the assay with Factor X [6], the Ki stood at 152000 nM and the percent inhibition of FVIII LC binding to FX at 800 μM peptide turned out to be 80%. Further, the Kd with Factor X [7] was 7700 nM.
